Test results taken from US20260234247A1 (published 2026).
Changes are numbered by the printed parent chain.

B1: LK-RB2-35 (antibody, human IgG4 S228P, kappa, V domains shown)
VH: EVQLQQSGPELVKPGASVKISCKASGYTFTDYNMHWVKQSHGKSLEWIGSIYPYNGGSDYNQKFKSKATLTVDNSSSTAYMELRSLTSEDSAVYYCASELTGLYAMDYWGQGTSVTVSS
VL: DIVMTQSPATLSVTPGDRVSLSCRASQSISDYLHWYQQKSHESPRLLIKYASQSISGIPSRFSGSGSGSDFTLSINSVEPEDVGVYYCQTGHSFPYTFGGGTKLEIKR
B2: LK-RB1-16.h2 (antibody, human IgG4, kappa, V domains shown)
VH: QVQLQESGPGLVKPSETLSLTCTVSGFSLISNAISWIRQPPGKGLEWLGVIWGDGNTIYHSALRSRLTISKDTSKNQVFLKLSSVTAADTAVYYCAKANWDGYYFDYWGQGTTVTVSS
VL: DIQMTQSPSTLSASVGDRVTITCHASQSVDFWLNWYQQKPGKAPKLLIYKASNLHTGVPSRFSGSGSGTEFTLTISSLQPDDFATYYCQQGQSYPLTFGQGTKLEIKR
notes: Humanized form of LK-RB1-16
B3: LK-RB1-16.h3 (antibody, human IgG4, kappa, V domains shown)
VH: B2 VH
VL: B2 VL with Y49S
notes: Humanized form of LK-RB1-16
B4: LK-RB1-16.h1 (antibody, human IgG4, kappa, V domains shown)
VH: B2 VH with L67V, V78F, F79S
VL: B2 VL
notes: Humanized form of LK-RB1-16
B5: LK-RB2-20 (antibody, human IgG4 S228P, kappa, V domains shown)
VH: QVQLKQPGAERVKPGASVKMSCKASGYTFTRYWITWVKQRPGQGLEWIGDIYPGSATTNYNEKFKSKATLTEDTSSSTAYMQLSSLTSEDSAVYYCARSGDYSNSNYAMDYWGQGTSVTVSS
VL: NIEMTQSPKSMSMAVGERVTLSCKASENVGTYVSWYQQKPEQSPKLLIYGASNRNTGVPDRFTGSGSATDFTLTISSVQAEDLADYHCGQSYSYPFTFGSGTKLEIKR
B6: LK-RB2-2 (antibody, human IgG4 S228P, kappa, V domains shown)
VH: DVKLEESGEGLVKPGGSLKLSCAASGFTFSSYAMSWVRQTPEKRLEWVAYISSGGDYFHYADTVKGRFTISRDNARNTLYLQMSSLKSEDTAMYYCTREGAHYDSSYLAWFAHWGQGTLVTVSA
VL: DIQMTQSPASLSVSVGETVTITCRASENIYSNLAWYQQRQGKSPQLLVYAATNLADGVPSRFSGSGSGTQYSLKINSLQSEDFGSYYCQQFWDNPLTFGAGTKLELKR
B7: LK-RB2-18 (antibody, human IgG4 S228P, kappa, V domains shown)
VH: EVQLQQSGPELVKPGTSVKISCKASGYTFTDYYMNWVKQSHGKSLEWIGDINPNNGGTSYNQKFKGKATLTVDKSSSTAYMELRSLTSEDSAVFYCARSGTTVVGTYWYFDVWGTGTTVTVSS
VL: B6 VL with R39K, A50G, Q90H, N94T, L96F, A100S, L106I
B8: LK-RB2-9 (antibody, human IgG4 S228P, kappa, V domains shown)
VH: DVQLQESGPGLVKPSQSLSLTCSVTGYSITSGYYWNWIRQFPGNKLEWMGYIGYDGNNNYNPSLKNRISITRDTSKNQFFLKLNSLTTEDTATYYCAREGSTMVTSWFAYWGQGTLVTVSA
VL: B6 VL with R39K, A50G, S65R, G68D, Q90H, N94T, L96Y, A100G, L106I
B9: LK-RB2-7 (antibody, human IgG4 S228P, kappa, V domains shown)
VH: B6 VH with E5V, K43M, Y57H, H59Y, N77S, H102S, S106N, Y107F, H113Y
VL: B6 VL with R39K, Q40E, A50G, Q90N, N94I
B10: LK-RB2-4 (antibody, human IgG4 S228P, kappa, V domains shown)
VH: EVQLVESGGDLVKPGGSLKLSCAASGFTFSNYGMSWVRQTPDKRLEWVATISSGGSYTFYPDSVKGRFTISRDNAKNTLYLQMSSLKSEDTALYYCARDYYYGKTIEGYFDYWGQGTTLTVSS
VL: DIQMTQTTSSLSASLGDRVTISCRANQDISNYLNWYQQKPDGTVKLLIYYTSRLHSGVPSRFSGSGSGTDYSLTISDLEQEDIATYFCQQGNTLPWTFGGGTKLEIKR
B11: LK-RB2-33 (antibody, human IgG4 S228P, kappa, V domains shown)
VH: EVQLQQSGVELVRPGALVKLSCKASGFNIKDYYMHWVKQRPEQGLEWIGWIDPEKGDTIYGPKFQGKASITADTSSNTAYLQLSSLTSEDTAVYYCSRGPNYGSSYAFAYWGQGTLVTVSA
VL: DVVMTQSHKFMSTSVGDRVTITCKASQDVSNAVAWYQQKPGQSPKLLIYSASYRYTGVPDRFTGSGSGTDFTFTISSMQAEDLAVYYCQQHYSLPWTFGGGTKLEIKR
B12: LK-RB2-1 (antibody, human IgG4 S228P, kappa, V domains shown)
VH: QIQLVQSGPELKKPGETVKISCKASGYTFTTYGMSWVKQAPGKGLKWMGWINTYSGVSTYADDFKGRFAFSLETSASTAYLQINNLKNEDTATYFCARRYDYDGYAMDYWGQGTSVTVSS
VL: DIVMSQSPSSLAVSVGEKVTMSCKSSQSLLFSSNQKNYLAWYQQKPGQSPKLLIYWASTRESGVPDRFTGRGSGTDFTLTISSVKTEDLAVYYCQQYDTYPPTFGGGTKLEIKR
B13: LK-RB2-23 (antibody, human IgG4 S228P, kappa, V domains shown)
VH: B12 VH with T53I, S58P, Y100G, A106Y, M107F, S115T, V116L
VL: NIVLIQSAATLSVTPGDSVSLSCRASQSLSNGLHWYQQKSHESPRLLIKYGSQSISGIPSRFSGSGSGTDFTLSINSVETEDFGMYFCQQSDSWPHTFGSGTKLEIKR
B14: LK-RB2-13 (antibody, human IgG4 S228P, kappa, V domains shown)
VH: B12 VH with K46Q, S58P, Y60F, E73D, Y100I, D101N, Y102W
VL: B12 VL with I2S, F31Y, S33G, N37S, R71S, T86A, D98Y, T99S, P102Y
B15: LK-RB2-6 (antibody, human IgG4 S228P, kappa, V domains shown)
VH: B12 VH with K46E, T53I, S58P, Y100G, G104S, Y105F, A106Y, M107F, S115T, V116L
VL: B12 VL with M21V, F31Y, S33Y, A57S, R71S, T86A, Y97C, D98Y, T99N, P102Y
B16: LK-RB2-22 (antibody, human IgG4 S228P, kappa, V domains shown)
VH: B12 VH with P14T, T53I, S58P, Y100A, A106Y, M107F, S115T, V116L
VL: NIVMTQTPKFLLVSAGDRVTITCRASQSVTNDVAWYQQRPGQSLKLLIYYASNRYTGVPDRFTGSGYGTDFTFTISTVQAEDLAVYFCQQGYSSPFTFGSGTKLEIKR
B17: LK-RB2-17 (antibody, human IgG4 S228P, kappa, V domains shown)
VH: QIQLVQSGPELKKPGETVKISCKASGYTFTNYGMSWVKQAPGKGLQWMGWINTYSGVPTFADDFRGRFAFSLDTSASTAYLQINSLKNEDTAAYFCARRINWDGYAMDYWGQGTSVTVSS
VL: DSVMSQSPSSLAVSVGEKVTLSCKSSQSLLYSGNQKSYLAWYQQKPGQSPKLLIYWASSRESGVPDRFTGSGSGTDFTLTISSVKAEDLAVYYCQQYYSFPYTFGGGTKLEIKR
B18: LK-RB2-21 (antibody, human IgG4 S228P, kappa, V domains shown)
VH: EVQLVESGGDLVKPGGSLKLSCAASGFTFSSYGMSWVRQTPDKRLEWVATISSGGSYTYYPDSLKGRFTISRDNAKSTLYLQMSSLKSEDTAKYYCARPYYDYIFYAIDYWGQGTSVTVSS
VL: DIQMNQSPSSLSASLGDTITITCHASQNINVWLSWYQQKPGNIPKLLIYKASNLHTGVPSRFSGSGSGTGFTLTISSLQPEDIATYYCQQGQSYPLTFGGGTKLEIKR
B19: LK-RB1-16 (antibody, human IgG4 S228P, kappa, V domains shown)
VH: QVQLKESGPGLVAPSQSLSITCTVSGFSLISNAISWVRQPPGKGLEWLGVIWGDGNTIYHSALRSRLTISKDNSKSQVFLKLNSLQIDDTATYYCAKANWDGYYFDYWGQGTTLTVSS
VL: B18 VL with N28S, I29V, N30D, V31F, S34N, Y49S, G70T, G100S
notes: Anti-LILRB1 antibody from mouse hybridoma; parental antibody of LK-RB1-16.h1 to h3
B20: LK-RB2-3 (antibody, human IgG4 S228P, kappa, V domains shown)
VH: QLQLQQSDAELVKPGASVKISCKVSGYSFTDHTIHWMKQRPEQGLEWIGYIYPRDGSTKENEKFTGKATLTADKSSSTAYMQLTSLTSEDSAVYFCTGSGFDYWGQGTSLTVSS
VL: DIKMTQSPSSMYASLGERVTITCKASQDIKSYLSWFQQKPGKSPKTLIYRANRLVDGVPSRFSGSGSGQDYSLTINSLEYEDMEIYYCLQYDEFPYTFGGGTKLEIKR
B21: LK-RB2-12 (antibody, human IgG4 S228P, kappa, V domains shown)
VH: QIQLVQSGPELKKPGETVKISCKASGYTFTTYGMSWVKQTPGKGLKWMGWINIYSGVPTYADDFKGRFVFSLEISASTAHLQINNLKNEDTATYFCARRKDYSGHCFDYWGQGTTLTVSS
VL: DIVLTQSPASLAVSPGQRATISCRASESVDTYGISFMHWYQQKPGQPPKLLIYRASNLESGIPARFSGSGSRTDFTLTINPVETDDVAIYYCQQSKKDPYTFGGGTKLEIKR
B22: LK-RB2-15 (antibody, human IgG4 S228P, kappa, V domains shown)
VH: B21 VH with T40A, I53V, V69A, H80Y, N88D
VL: B21 VL with P15L, I21F, I89T, D98E
B23: LK-RB2-14 (antibody, human IgG4 S228P, kappa, V domains shown)
VH: QVQLKQSGPGLVQPSQSLSITCTVSGFSLTSYGVHWVRQSPGKGLEWLGVIWRGGSTDYNAAFMSRLSITKDNSKSQVFFKMNSLQADDTAIYYCAKNEGDSTVVAWYFDVWGTGTTVTVSS
VL: DIQMTQTTSSLSASLGDRVTISCSASQGISNYLNWFQQKPDGTVKLLIYYTSSLHSGVPSRFSGSGSGTDYSLTISNLEPEDIATYYCQQYSKLPLTFGAGTKLELKR
B24: LK-RB2-19 (antibody, human IgG4 S228P, kappa, V domains shown)
VH: QVQLQQPGAELVKPGASVKLSCKASGYTFTSYWMHWVKQRPGQGLEWIGMIHPNSGGTNYNEKFKSKATLTVDKSSSTAYMQFSSLTSEDSAVYYCARCTVVALYYALDYWGQGTSVTVSS
VL: QIVLSQSPAILSASPGEKVTMTCRATSRVSYIHWFQQKPGSSPKPWIYVTSNLASGVPARFSGSGSGTSYSLTISKLEAEDVATYYCQQWSTNPLTFGAGTKLELKR

Tests used:
[1] = target: T1, human LILRB2 (human, UniProt Q8N423 22-460, limits assumed); test: Octet off-rate ranking;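 note: antibody dissociation rate constants against cynomolgus LILRB2 plus human LILRB1, LILRB2, LILRA1 and LILRA2, measured on an Octet instrument to rank binding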
T1 construct: also called hLILRB2
Text: Binding affinity of anti-LILRB1 and anti-LILRB2 antibodies against human LILRB1, LILRB2, LILRA1, LILRA2 and cynomolgus LILRB2 was ranked by measuring dissociation rate constant (Kdis) using the Octet system.

[2] = target: T2, human LILRB1-his (human, UniProt Q8NHL6 24-458, limits assumed); test: SPR (Biacore 8K), antibody captured via Fc, LILRB1-his as analyte, 1:1 model
T2 construct: Analyte of the Biacore run; not shown: His tag
T2 sequence (Q8NHL6 24-458 limits assumed): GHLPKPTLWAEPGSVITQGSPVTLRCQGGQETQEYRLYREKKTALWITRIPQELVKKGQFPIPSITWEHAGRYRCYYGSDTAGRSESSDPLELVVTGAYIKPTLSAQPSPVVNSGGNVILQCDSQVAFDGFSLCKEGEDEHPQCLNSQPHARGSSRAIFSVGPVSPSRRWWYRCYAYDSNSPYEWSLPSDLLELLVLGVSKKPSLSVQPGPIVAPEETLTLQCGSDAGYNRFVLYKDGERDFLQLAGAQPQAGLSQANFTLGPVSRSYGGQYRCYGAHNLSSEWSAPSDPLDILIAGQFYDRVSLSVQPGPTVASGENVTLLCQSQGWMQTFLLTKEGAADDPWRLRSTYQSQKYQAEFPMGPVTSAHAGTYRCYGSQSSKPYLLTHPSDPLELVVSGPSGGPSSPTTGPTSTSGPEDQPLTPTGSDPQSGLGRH

T1 sequence (Q8N423 22-460 limits assumed): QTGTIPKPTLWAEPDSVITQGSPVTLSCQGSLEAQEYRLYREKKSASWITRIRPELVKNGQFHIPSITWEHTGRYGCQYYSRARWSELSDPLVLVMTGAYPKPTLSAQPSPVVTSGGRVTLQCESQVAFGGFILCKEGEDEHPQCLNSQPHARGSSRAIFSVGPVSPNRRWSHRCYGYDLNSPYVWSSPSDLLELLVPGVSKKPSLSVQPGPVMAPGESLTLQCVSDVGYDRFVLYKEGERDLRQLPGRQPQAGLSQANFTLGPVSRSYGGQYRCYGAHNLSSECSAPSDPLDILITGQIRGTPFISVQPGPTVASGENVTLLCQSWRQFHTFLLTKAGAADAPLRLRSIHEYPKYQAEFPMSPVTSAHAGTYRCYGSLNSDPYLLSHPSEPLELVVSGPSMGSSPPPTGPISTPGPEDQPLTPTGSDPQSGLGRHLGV

| Binder | koff [1] [s⁻¹] | also measured |
| --- | --- | --- |
| B1 | 0.0012 |  |
| B2 |  | Kd [2]: 0.235 nM; koff [2]: 0.000112 s⁻¹; kon [2]: 476000 M⁻¹ s⁻¹ |
| B3 |  | Kd [2]: 0.24 nM; koff [2]: 0.000107 s⁻¹; kon [2]: 444000 M⁻¹ s⁻¹ |
| B4 |  | Kd [2]: 0.507 nM; koff [2]: 0.0002 s⁻¹; kon [2]: 394000 M⁻¹ s⁻¹ |
| B5 | 0.000895 |  |
| B6 | 0.000757 |  |
| B7 | 0.000174 |  |
| B8 | 0.00135 |  |
| B9 | 0.0014 |  |
| B10 | 0.000157 |  |
| B11 | 0.00139 |  |
| B12 | 0.00341 |  |
| B13 | 0.000876 |  |
| B14 | 0.00304 |  |
| B15 | 0.00167 |  |
| B16 | 0.00126 |  |
| B17 | 0.000926 |  |
| B18 | 0.000966 |  |
| B19 |  | Kd [2]: 0.194 nM; koff [2]: 0.000108 s⁻¹; kon [2]: 556000 M⁻¹ s⁻¹ |
| B20 | 3.91e-05 |  |
| B21 | 0.000662 |  |
| B22 | 6.22e-05 |  |
| B23 | 0.000302 |  |
| B24 | 0.002 |  |
